Columns and labels:
[1] = biological target: surface BCMA on Molp8 cells (Homo sapiens, UniProt Q02223); experiment: FACS surface BCMA after overnight incubation, Molp8; type: cell-based; details: range over detecting anti-BCMA antibodies
Experimental: (§1) Flow cytometric analysis was utilized to determine the impact of overnight incubation of multiple myeloma cell lines with anti-BCMA antibodies on the level of surface BCMA. […] After 18 hours, wells were washed with cold FACS wash (PBS+1% filtered FBS) and resuspended in 667 nM of the same anti-BCMA antibody in cold stain buffer (Miltenyi 130-091-221) for 30 minutes on ice. After incubation, the cells were washed twice with cold FACS wash (PBS+1% filtered FBS) and bound antibody was detected by incubating with the appropriate anti-human secondary antibody (anti-hIgG or anti-HIS) on ice for an additional 30-45 minutes. After incubation, cells were washed, re-suspended in 200 μL cold PBS containing 1% filtered FBS and analyzed by flow cytometry on a BD FACS Canto II. Fold increase in staining was calculated by dividing the MFI of stained cells previously incubated overnight in BCMA abs or DAPT by the MFI of stained cells that were incubated overnight in media only.

[2] = biological target: T1, surface BCMA on H929 cells (Homo sapiens, UniProt Q02223); experiment: FACS surface BCMA after overnight incubation, NCI-H929; type: cell-based; details: range over detecting anti-BCMA antibodies
T1 construct: human cell lines which express endogenous BCMA (e.g., NCI-H929); endogenous in cells; host or cells: multiple myeloma cell lines H929
Experimental: as §1

[3] = biological target: T2, surface BCMA on U266 cells (Homo sapiens, UniProt Q02223); experiment: FACS surface BCMA after overnight incubation, U266; type: cell-based; details: range over detecting anti-BCMA antibodies
T2 construct: human cell lines which express endogenous BCMA; endogenous in cells; host or cells: multiple myeloma cell lines U266
Experimental: as §1

[4] = biological target: surface BCMA on MM1.S cells (Homo sapiens, UniProt Q02223); experiment: FACS surface BCMA after overnight incubation, MM1S; type: cell-based; details: MM.1 S
Experimental: as §1

[5] = biological target: T3, human BCMA-MMH (Homo sapiens, UniProt Q02223); experiment: SPR (Biacore 4000) binding kinetics to human BCMA-MMH; details: 25° C.
T3 construct: (human BCMA-MMH); myc-myc-hexahistidine (C); made in house
Experimental: (§2) The CM5 Biacore sensor surface was derivatized by amine coupling with a monoclonal mouse anti-human Fc antibody (GE, #BR-11008-39) to capture purified anti-BCMA mAbs and anti-BCMA×anti-CD3 bispecific mAbs. All Biacore binding studies were performed in a buffer composed of 0.01 M HEPES pH 7.4, 0.15M NaCl, 3 mM EDTA, 0.05% v/v Surfactant P20 (HBS-ET running buffer). […] Antigen samples were then injected over the anti-BCMA and anti-BCMA×anti-CD3 bispecific mAbs captured surfaces at a flow rate of 30 μL/minute. Antibody-reagent association was monitored for 5 minutes while dissociation in HBS-ET running buffer was monitored for 10 minutes. All of the binding kinetics experiments were performed at 25° C. Kinetic association (ka) and dissociation (kd) rate constants were determined by fitting the real-time sensorgrams to a 1:1 binding model using Scrubber 2.0c curve fitting software. Binding dissociation equilibrium constants (KD) and dissociative half-lives (t½) were calculated from the kinetic rate constants as: […]

[6] = system: mouse BCMA-MFC; experiment: SPR (Biacore 4000) binding kinetics to mouse BCMA-MFC; details: 25° C.
Experimental: as §2

[7] = biological target: T4, human BCMA-MFC (Homo sapiens, UniProt Q02223); experiment: SPR (Biacore 4000) binding kinetics to human BCMA-MFC; details: 25° C.
T4 construct: (human BCMA-MFC); made in house
Experimental: as §2

[8] = system: monkey BCMA-MFC; experiment: SPR (Biacore 4000) binding kinetics to monkey BCMA-MFC; details: 25° C.
Experimental: as §2

[9] = system: monkey BCMA-MMH; experiment: SPR (Biacore 4000) binding kinetics to monkey BCMA-MMH; details: 25° C.; 90 nM antigen
Experimental: as §2

T4 sequence (Q02223 with tags, fused parts or gaps): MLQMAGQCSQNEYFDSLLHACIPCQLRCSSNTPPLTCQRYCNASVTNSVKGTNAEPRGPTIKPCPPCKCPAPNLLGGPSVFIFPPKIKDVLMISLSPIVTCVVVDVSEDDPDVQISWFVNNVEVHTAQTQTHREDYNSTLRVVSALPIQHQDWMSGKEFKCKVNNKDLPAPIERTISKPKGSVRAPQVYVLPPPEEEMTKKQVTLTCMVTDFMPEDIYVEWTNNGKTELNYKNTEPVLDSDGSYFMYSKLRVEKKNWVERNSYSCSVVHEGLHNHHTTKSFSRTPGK
T3 sequence (Q02223 with tags, fused parts or gaps): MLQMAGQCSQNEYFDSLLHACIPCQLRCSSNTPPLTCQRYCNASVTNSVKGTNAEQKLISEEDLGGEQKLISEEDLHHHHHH
Sequence of mouse BCMA-MFC (as listed by the source): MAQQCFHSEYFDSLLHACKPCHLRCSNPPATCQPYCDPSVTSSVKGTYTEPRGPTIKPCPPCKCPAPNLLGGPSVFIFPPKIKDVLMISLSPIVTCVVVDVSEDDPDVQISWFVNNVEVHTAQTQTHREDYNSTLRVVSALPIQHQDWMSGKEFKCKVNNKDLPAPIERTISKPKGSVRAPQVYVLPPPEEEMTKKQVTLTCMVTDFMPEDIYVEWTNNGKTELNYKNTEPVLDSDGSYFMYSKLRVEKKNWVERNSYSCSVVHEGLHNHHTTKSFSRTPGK
Sequence of monkey BCMA-MFC (as listed by the source): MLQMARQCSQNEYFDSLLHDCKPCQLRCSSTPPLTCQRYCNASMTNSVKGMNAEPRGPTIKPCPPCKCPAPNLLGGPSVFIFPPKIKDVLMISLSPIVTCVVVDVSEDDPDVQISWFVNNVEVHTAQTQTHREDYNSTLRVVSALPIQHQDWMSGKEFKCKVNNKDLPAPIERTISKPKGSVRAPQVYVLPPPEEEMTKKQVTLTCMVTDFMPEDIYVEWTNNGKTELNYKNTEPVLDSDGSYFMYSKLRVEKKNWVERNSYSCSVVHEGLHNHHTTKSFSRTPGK
Sequence of monkey BCMA-MMH (as listed by the source): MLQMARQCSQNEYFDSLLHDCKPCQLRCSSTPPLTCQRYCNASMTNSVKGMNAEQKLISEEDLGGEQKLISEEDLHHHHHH
Sequence of surface BCMA on MM1.S cells (Q02223 whole entry): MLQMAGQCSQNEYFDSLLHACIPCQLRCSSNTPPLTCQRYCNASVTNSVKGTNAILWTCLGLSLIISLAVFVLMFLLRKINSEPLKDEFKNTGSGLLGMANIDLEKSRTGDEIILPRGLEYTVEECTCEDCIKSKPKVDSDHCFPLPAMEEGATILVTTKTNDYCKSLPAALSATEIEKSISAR
T2 sequence (Q02223 whole entry): as above
Sequence of surface BCMA on Molp8 cells (Q02223 whole entry): as above
T1 sequence (Q02223 whole entry): as above

| Molecule | fold increase in MFI of BCMA over cells incubated in media only [1] | fold increase in MFI of BCMA over cells incubated in media only [2] | fold increase in MFI of BCMA over cells incubated in media only [3] | fold increase in MFI of BCMA over cells incubated in media only [4] [fold] | ka [5] [M⁻¹ s⁻¹] | kd [5] [s⁻¹] | ka [6] [M⁻¹ s⁻¹] | kd [6] [s⁻¹] | ka [7] [M⁻¹ s⁻¹] | kd [7] [s⁻¹] | ka [8] [M⁻¹ s⁻¹] | kd [8] [s⁻¹] | 90 nM mfBCMA.mmh Bind (RU) [9] [RU] |
| --- | --- | --- | --- | --- | --- | --- | --- | --- | --- | --- | --- | --- | --- |
| C[C@H](NC(=O)Cc1cc(F)cc(F)c1)C(=O)N[C@H](C(=O)OC(C)(C)C)c1ccccc1 [DAPT] | 2.4-8.6 fold | 2.3-4 fold | 5.3-9.0 fold | 11.9 |  |  |  |  |  |  |  |  |  |
| REGN4514: anti-BCMA antibody, HCVR/LCVR SEQ ID NOs 34/42 (antibody, V domains shown) VH: EVQLVESGGGLVQPGRSLRLSCAASGFTFDDYAMHWVRQAPGKGLEWVSGISWNSGNMGYADSVKGRFTISRDNAKNSLFLQMHSLRAEDTAFYYCAKVRLTAFDFWGQGTLVTVSS VL: DIQMTQSPSSLSASVGDRVTITCRTSQSIGNYLNWFQQKPGKAPKLLIYTASSLQNGVPSRFTGSGSGTDFTLTISSLQPEDFVIYYCQQSFSTPYTFGQGTKLEIK |  |  |  |  | 1.06e+06 | 0.00285 | 397000 | 0.000269 | 1.07e+06 | 4.53e-05 | 492000 | 0.00724 | 1.1 |
| mAb16711: anti-BCMA antibody, HCVR/LCVR SEQ ID NOs 2/10 (antibody, V domains shown) VH: QVQLVESGGGVVQPGRSLRLSCAASGFTFSTYGIHWVRQAPGKGLEWVAVILHDGSSNYYAESVKGRFIISRDNSKNTLYLQMNSLRAEDTALYYCTKRYSEAAGPNWFDPWGQGTLVTVSS VL: DIQMTQSPSSVSASVGDRVTITCRASRGISSWLAWYQQKPGKAPKLLIHAASSLQSGVPSRFSGSGSGTDFTLTISSLQPEDFATYYCQQAISFPFTFGPGTKVDIK |  |  |  |  | 2.01e+06 | 0.00347 | 1.07e+06 | 0.0011 | 1.85e+06 | 0.00019 |  |  |  |
| REGN4515: anti-BCMA antibody, HCVR/LCVR SEQ ID NOs 50/58 (antibody, V domains shown) VH: QVQLVESGGGLVKPGGSLRLSCAASGFTFSDYYISWIRQAPGKGLEWVSYISSSGSSIKYADSVKGRFTISRDNAKNSLYLQMNSLRAEDTAVYYCAREGGNYGMDVWGQGTTVTVSS VL: DIQMTQSPSSVSASVGDRVTITCRASQGINNWLVWYQQKPGKAPKLLIYAATSLQSGVPSRFSGSGSGTDFTLTISSLQPEDFATYYCQQANSFPPTFGQGTKLEIK |  |  |  |  | 869000 | 0.00247 | 947000 | 0.00418 | 1.41e+06 | 8.95e-05 | 2.13e+06 | 0.00716 | 1.9 |

From patent publication US20260008862A1, “Bispecific Anti-BCMA x Anti-CD3 Antibodies and Uses Thereof” (Regeneron Pharmaceuticals, Inc., priority 2018, published 2026)
